Assay results published in the DeepSol protein solubility set.

Assay: soluble on expression in E. coli; label from the status in PepcDB or PDB records

| Sequence | soluble on expression in E. coli |
| --- | --- |
| MDRKIREQIIAIYSNLQHKQDLTQFAHCLTTKADDNCEDFFNLGLQFQNNQLTALGFNGEGCIISTIASELTLSALEGKTIKEAIVLLEQFMEAVQTGSLSTPLPQALQLLWDFQIDQKRLNCLLLTPQNLLQWLKDFSH | soluble |
| MDRKVAREFRHKVDFLIENDAEKDYLYDVLRMYHQTMDVAVLVGDLKLVINEPSRLPLFDAIRPLIPLKHQVEYDQLTPRRSRKLKEVRLDRLHPEGLGLSVRGGLEFGCGLFISHLIKGGQADSVGLQVGDEIVRINGYSISSCTHEEVINLIRTEKTVSIKVRHIGLIPVKSSPDEPLTWQYVDQFVSES | soluble |
| MDSAFVDRAWDKWVTTGNVGSSDFEKKMKNPERKNKMLLFGDLIVGICSGPSRLLSTIAKQEGIDIYPVDLKQFIDFMRCGNLPTETFVLGSNQCKNIITSIHENWFAARCLNTSQPAGEGAIVMQTAVYVLVALYDGSIGSASQAMAAADQFASQLSRKNF | soluble |
| MDSGINNISRFRIDHSFHKLHYAMHSAHSHTYYELFYMMHGNCTISIDNRLFTLSEGNIIFIPANSVHRTSYIGELVPERTYIEFSKDYIETISQTLGKNWAEHNLWGHILYIEKEKREKIDFLFREIQKEYDIVDGYSDCCIRQLFQYLIINLIRLDRNTKDIKEFITNSDNKINQNMIIAAKYIAENFKNDITLKDVASHLNLNPSYFSSKFKAFNNIGFAEYLRNIRVNHAEWYLIETDLSLSDIASECGFCNSNYFGDTFKLVNGISPSEFRKNNKPKKAEN | not soluble |
| MDSIPLEKPHVVSLIGGFGYREPIFRKVLTTAMLDPGINYTLISGPSLDPSKLGGVPKNVRILNFVEDTYPYIKSSDAVIAPGGHSTIMEALSFGVPILSFPDEGHSEQESNAAVVEEEGYGRMLSYSTPPEVILECIREVIEDEAYRNKVERLQRLSGELEHHHHHH | soluble |
| MDSLKGMAIFATVVDKGSMAAAAQSLGMTPSAVSQQIRKLESRAQVTLLHRTTRRLTLTEAGEAFYRSCAQMLAIAEEAERRLGEWRDAPVGELRLAAPVGFSGTLITQALKPLLENHRQLRLQLFFQDERIDLVAERIDLAIRVGNLADSSLVARHLGDWSSVLCAAPAYLRQRAPINRPEQLTEVDWISLNTSNHLNHLTLSGPGGEVCKLRLEPRVAANGMLAVRQFTLDGLGVSYQPLPEVRDALNDGRLQQLLPEWRIPGLGIYAVTPRREAQPAKVKVAIEALRRAFATDGDERWS | not soluble |
| MDSTMTNYMGQENLPPALKLINDKSYQYSTHKHNIETSNDGTLHSYTIVLSREPLESPTSYNKYQKNVEPVQKENQKPKDLNKMTAGPHIAVKNSSGLVSQISSTTSSERKRRTLARPSSSSESDLKVGNIQQSNQYFTLPSVMKPSALSTEDPKKVIVQSNTSSSSMSDASSKKSLPTYTYLSGHTTGSARYVTMVNVKFLLLHCDVLQRRAQSMFTDEFPSDCRLEEVVINFHQLCCRQLLDQNFNPRLSYCIGELNYSDSKPVSANDMSKTLAQLATTQSIAQLSIIVDVTEKNMKLK | not soluble |
| MDTDIRDFIIEDDLFDPFMDENEDDDRAEIDEEPETPLIGEPLDEWKKPVEDWRPAQVRIKDLFEEMPGQKRMMLKIIDYCREERTGEEMDVFTNDLKQYCYSVYSPVVFRELLEEAGAIEYIKPDEPEGSQDAAQSEERAQAGGELPEEAVSPHRGDVYGTLPVDDESTLVPIDGADIVHESYIEGDEEIQMDFLEITPCEPGTWKATEAGLEAVDSMDDLDGTKELLGKEPKYLDIYHQILDYCQDEYGRSSKEIDKLVNDSPLLEEPRRYSGYFVSRLEKQGALEWRNGWFVTEVGKKIIEEAAAHV | not soluble |
| MDTIIYYSEMEGISLEHLKRSSGYDMRSNHFHNEYEIYFLTEGERLFFFNNRAYQVKKGSLILVDTNLIHMTHAPEDDTTGYTRIILYIDKFKMQQFDEKFPHLNLVPFFREHYGVYNLTQKQQEKFLHMYEVLKTEFSNRSRSYKALIEMEIIHYFIDFIRDNPELTPIKDETAIHKSSKYQ | not soluble |
| MDTIWDADLQSAALKAEHHRLKTERLSLGYEGKSVCDALDLAIPHGKFSVIVGPNGCGKSTLLKSLCRLLKPLAGQVLLDGQNIHQLPTKVVAKQLGLLPQSALTPEGIKVVDLVSRGRYPHQGLFRQWSRVDERAVEEAMRATHVHELAQHSVDQLSGGQRQRVWVAMALAQQTPYLLLDEPTTYLDIAHQIELLDLFWRLNRQQGHTLVAVLHDLNQACRYADHLIVLQEGKIVAQGDPHSLVTPALVKQVFGIDCVVMPDPISCTPLIIPYSLKRG | not soluble |
| MDTLPECPITNTASLLPHSGRMVLIDRITRYGDDFVEAGAQVSPNHILLLDDKLPYTAFIELMAQAVGAYAGIQARKNARSVRLGFLLGTRKLEIFAQSVPIGTHLLATAHMSIQDAGGMGVFDCELRWTDAPETSSETLPSDGILARASLNVYSPEHPAGTTDAVLEHHHHHH | not soluble |
| MDTNSLLSAGSDMAKAANLSDADIIQLSDAACKQSDQESKIAPAGNKYSVRLTKLMRGFGNMTLNGQKVNYKVYMTEDVNAWAMGNGCVRVYTGLMDLMNDDELRGVIGHEMGHVALGHTKKAMQTAYAVSAARQAAGAAGNSVVASLSASQLGEMTEKFINAQFSQSQETAADDFSFDLLTEKKMNRKGLVTAFQKLAELDGGESSMFSSHPSSPDRAARMEKRLQAGKLEHHHHHH | soluble |
| MDVSMLQSPQKRIKTIQKLAVSKKDVHDFKDIFEMLEEQKEKRNINIIQYDSLDDLSGDWSEYTFFCGNFDSDLFRTLTKHQETQALFIIGASVLKNKLLKNEDLMTLRAARPLYCELMKDVTMKLAAEVPNKRELVDLVHYMGGSVRKDTVSRTNVFIAAKVEAKVQSISLVGVPTMRADWVTECWKHRDDSYFDVMEPCFVDKHRLGVFEGLSLFFHGFKQTEIDDMLRSLENTGGKLAPSPTLATHVVYNPDNDEVETLAVSSNQVHVTKEWFWVSLHRGCCAIEDNFALPTGKLHRKPLESSSVSSPIGKSLRSQNSRSLSSMRDCSVEGPTSLNMTPDYIYSNDDVENSCKSPRQPSKRLRVCMEMVETEKNYLSLLKLVVKFKEALECEISHNEFMSRSDVAMMFGKLDPILELHERIFARLTVMSNEANTLLTVVNGKKNDDKNLDFAQVWIDAKEEMKKAYPQYINSYDTIKRLFDKQDRENSKFHTFCKAKESNPEFHRLKLTDLMVKPVQRLPSVILLLKEMAKKSDSKLKNNAEEAAKAIDEVLKTANKTREKNDNFISHLSKFTDIENVPPILVAANRMFIRELVVSPIASTSPGLQQFAKMKLFLFHDVLIITKIRSEKNTMQRLARHASFASLHSRQRRPYRYIDQIQLNTMRSAFRIRAPDEIAKCLELQQQNGSTKPNVFVWCLIHRDEQGGDIDTVFESNDDEEVRDFLDDIHVKILSDCGRFFYSSDPSDMNEINDAMVSDMTTRYFRNLCGAKPQYGHGSQMNITEWSHNESFMPPPQSQSRMRRAFSNAQLTLATTLGFGRNQSRNNLGQINENTTFLQSPRVSCDPAALANMTSVGGLPGCQSESESTPKRGIRSRLTSTTFLGGRHNILGRNTSMRRQATGFAHSEKELPRSKTSSYRVTDI | not soluble |
| MDVSYLLDSLNDKQREAVAAPRSNLLVLAGAGSGKTRVLVHRIAWLMSVENCSPYSIMAVTFTNKAAAEMRHRIGQLMGTSQGGMWVGTFHGLAHRLLRAHHMDANLPQDFQILDSEDQLRLLKRLIKAMNLDEKQWPPRQAMWYINSQKDEGLRPHHIQSYGNPVEQTWQKVYQAYQEACDRAGLVDFAELLLRAHELWLNKPHILQHYRERFTNILVDEFQDTNNIQYAWIRLLAGDTGKVMIVGDDDQSIYGWRGAQVENIQRFLNDFPGAETIRLEQNYRSTSNILSAANALIENNNGRLGKKLWTDGADGEPISLYCAFNELDEARFVVNRIKTWQDNGGALAECAILYRSNAQSRVLEEALLQASMPYRIYGGMRFFERQEIKDALSYLRLIVNRNDDAAFERVVNTPTRGIGDRTLDVVRQTSRDRQLTLWQACRELLQEKALAGRAASALQRFMELIDALAQETADMPLHVQTDRVIKDSGLRTMYEQEKGEKGQTRIENLEELVTATRQFSYNEEDEDLMPLQAFLSHAALEAGEGQADTWQDAVQLMTLHSAKGLEFPQVFIVGMEEGMFPSQMSLDEGGRLEEERRLAYVGVTRAMQKLTLTYAETRRLYGKEVYHRPSRFIGELPEECVEEVRLRATVSRPVSHQRMGTPMVENDSGYKLGQRVRHAK | soluble |
| MDVTCNIKNGRCEQFCKNSADNKVVCSCTEGYRLAENQKSCEPAVPFPCGRVSVSQTSK | soluble |
| MDVTDKIRPWMKECRLCPRNCGADRMAGQKGFCGTDTEIMVARAALHMWEEPCISGKEGSGAVFFSGCSLGCNFCQNRRISRGQRGKKITQEHLVELFFQLQEQGANNINLVTAGHFLPQVAVALEMAKEQGLHIPVVYNSSGYEKAKTLKMLDGLVDIYLPDFKYMDAVLAKKYSHAQDYPEIAKEALSEMVRQVGEAEFDSRGMMKKGVIVRQLLLPGHVKDAKNVLKYLYETYGDRIYISMMNQYTPMPAMKDDPQLSRKVTDREYERLIDYAISLGLKNGFMQEGETAKESFIPEFDGEGV | not soluble |
| MDVTFLTKNVQINGTQFKILLQNGQGECALIALANVLLISPAHARYAQEISRLVRGKETVTLNELVQTLADMGVQNPNGTDVDKQQLLQILPQLYSGLNINPEFNGSFEDGVEMSIFRLYNVGIVHGWIIDGDNDPNSYEHVSKYSYMGAQKVLVQSYEIQKNNAQFENSEQIQSDAPYLKSFLARSATQLTEYGLTHLREILVERSYAVLFRNDHFCTLYKNNGELFTLVTDPTYRNRKDINWQSLKSVNGSQDSYYTGNFIPTSLERTETTATGQNESYISNPFSDQNTGHVTSNQVNSGASGVQQIEDDEELARRLQEQEDMRAANNMQNGYANNGRNHQRERFERPEKNSKKNKFLPFNGSNKEKKRDKLKKNCVIM | soluble |
| MDVVEVAGSWWAQEREDIIMKYEKGHRAGLPEDKGPKPFRSYNNNVDHLGIVHETELPPLTAREAKQIRREISRKSKWVDMLGDWEKYKSSRKLIDRAYKGMPMNIRGPMWSVLLNTEEMKMKNPGRYQIMKEKGKRSSEHIQRIDRDVSGTLRKHIFFRDRYGTKQRELLHILLAYEEYNPEVGYCRDLSHIAALFLLYLPEEDAFWALVQLLASERHSLQGFHSPNGGTVQGLQDQQEHVVATSQPKTMGHQSASRRRPGVARGHVFATGSLIPGPGMRTLCSSILGPL | not soluble |
| MDWSHYRFRSLWALPAPPARVYAALERVEDYPRWWPQVREVTRLDEDCGVIRIRSLLPYDMTFTARDVRHDTAAGILEITMTGDIDGWARWTVTAGGPGTLARYDQEVDVRKPLLRRFAVPGRPVFRANHALMMRAGQRGLLAHLDGLEHHHHHH | not soluble |
| MDYCCVGRNNNDSVPSEGTLLRVKTLMKMANHPRPGDIIQESLDELNVSLREFARAMEIAPSTASRLLTGKAALTPEMAIKLSVVIGSSPQMWLNLQNAWSLAEAEKTVDVSRLRRLVTQ | soluble |
| MDYDVIANQPVVIDNGSGVIKAGFAGEQQPKVRFANFVGRPKYHRVMAGGLDGDIFIGPKAESNRGLFSIEYPMEHGIVNNWSDMEKIWEYIFGQDQLKIFPEEHPVLLTDAPLNPLKNRERSAEIFFETFNVPALYIQMQAVLSLYATGRTTGVVLDSGDGVTHAVPIVKGFAMKHAIQRMDLAGRDVTEYLRVLLRREGYEFHRSNEFEIVREMKENACYLALDPTKVENNSVKSSYALPDTTKIEISNSLFRAPEVLFKPDLIGTEWPGMAHVVNQSIMKCDVDLRQTLYSNIVLSGGTTLFKGFGDRLLGEMRKIAPADGKIRISASQERNSLTWIGGSIVASLDTFRKMWLGKKEYEDMGASAMHKRFF | not soluble |
